We go through 11 molecules from patent US20230272011A1 (AVACTA LIFE SCIENCES, published 2023).

The target in assay [1] is T1, human serum albumin (human, UniProt P02768 25-609).
T1 construct: mature; Bought protein; biotinylated in the Octet and HTRF assays; also called HSA; HuSA
In words: SPR (Biacore), immobilised HSA, Affimer analyte.

Assay [2] deals with T2, human PD-L1-Fc (R&D Systems) chimeric protein (human, UniProt Q9NZQ7 19-239).
T2 construct: Bought reagent; also called rhPD-L1-Fc; huPD-L1; Fc part of the bought chimera not given, not described
In words: SPR (Biacore T200), PD-L1-Fc amine-coupled to CM5, Affimer analyte. On the procedure: (§1) ILF dimer production from E. coli was performed as described in Example 3. Briefly, protein was purified using three stages: affinity capture, IEX, and preparative SEC. […] To analyze PD-L1-Fc binding kinetics, a Biacore T200 kinetic analysis was performed using running buffer HBS-EP+ and series S sensor CM5 (GE Healthcare) chip Fc2 immobilized with PD-L1-Fc (R&D Systems) in 10 mM sodium acetate pH 4.0 using amine coupling reagents (GE Healthcare). The concentration titration of ILF AFFIMER® polypeptides was run as analyte at a flow rate of 30 μl/min. […] with 3 mM NaOH (GE healthcare) for 20 seconds at 20 μl/min flow rate. The Fc2-1 data blank was subtracted and fit to a 1:1 Langmuir binding model (Biacore evaluation software; GE) to calculate an apparent KD value.

Assay [3] has as its target T2, human PD-L1-Fc (R&D Systems) chimeric …. In words: SPR (Biacore T200), PD-L1-Fc amine-coupled to CM5, Affimer analyte; apparent KD. On the procedure:
as §1

Assay [4] addresses T3, cynomolgus serum albumin (cynomolgus).
T3 construct: also called CSA; cyno serum albumin
The experiment in a line: BLI (Octet), biotinylated albumin on SA sensor, pH 6.0. The protocol:
(§2) Biotinylated antigen was captured onto SA sensors at 1 μg/ml for 600 seconds in a buffer comprising PBS-T (0.01% Tween 20)+1% casein at either pH 6.0 or 7.4. Association was carried out for 300 seconds and dissociation for 600 seconds, and regeneration was performed using 10 mM glycine pH 1.5 (GE Healthcare) for 3×5 seconds. All steps were carried out at 1000 rpm and 25° C. Purified AFFIMER® polypeptide in two-fold serial dilutions was analyzed at a starting concentration of approximately 10× K_{D value}. Kinetics analyses were carried out using the Octet data analysis software, subtracting the reference sensor (loaded with antigen), aligning the Y-axis to baseline, and using inter-step correction to align association to dissociation. Savitzky-Golay filtering was applied and the data processed. Analysis of the data was carried out with a 1:1 model, global fit, Rₘₐₓ unlinked by sensor.

Assay [5] addresses T1, human serum albumin. The description is as above. On the procedure:
as §2

The next assay has as its target T4, mouse serum albumin (mouse, UniProt P07724 25-608).
T4 construct: also called MSA
The description is as above. On the procedure:
as §2

Assay [6] has as its target T3, cynomolgus serum albumin. The experiment in a line: BLI (Octet), biotinylated albumin on SA sensor, pH 7.4. The protocol:
as §2

For assay [7], the target named is T1, human serum albumin. The description is as above. The protocol:
as §2

The target of assay [8] is T1, human serum albumin. The experiment in a line: SPR (Biacore) response to HSA, pH 7.4. The text has this: (§3) Final clones were sequence-verified, produced from E. coli, and affinity purified as described in Example 3.
The target of assay [9] is T1, human serum albumin. The experiment in a line: SPR (Biacore) binding response to HSA at pH 7.4, Affimer at 50 nM.
Excerpt: as §3

In assay [10] the target is T1, human serum albumin. In words: binding ELISA on coated HSA, pH 7.4. On the procedure:
After saturation with 5% PBS Casein pH 7.5, plates were washed and a dilution of AFFIMER® polypeptides or controls were incubated for 90 minutes. Plates were then washed, and a biotinylated polyclonal antibody anti-cystatin A (R&D Systems) was added for 1 hour. Plates were washed and AFFIMER® polypeptides were detected using streptavidin-HRP. After a last washing step, TMB was added for the development of the experiment and the plates were read at 450 nm.

Assay [11] deals with T1, human serum albumin. The experiment in a line: SPR (Biacore), immobilised HSA, Affimer analyte. On the procedure:
Affinities for mouse, human, and cynomolgus serum were also measured at pH 7.4 for four (4) AFFIMER® binders using surface plasmon resonance (SPR) (FIG. 5, Table 5). […] A concentration titration of AFFIMER® monomers was run as analyte at a flow rate of 30 μl/min or 60 μl/min. Fc2-1, Fc3-1 and Fc4-1 kinetic data was blank subtracted and fit to a 1:1 Langmuir binding model (BIAcore Evalution software; GE) to calculate KD values. […]
This is another data set of the same source.

Assay [12] addresses T2, human PD-L1-Fc (R&D Systems) chimeric …. In words: binding ELISA on coated human PD-L1-Fc (table on the sheet is headed 'IC50 (nM)'; the text calls these values EC50). On the procedure:
Briefly, human PD-L1-Fc (R&D Systems) chimeric protein was coated on 96 well plates at […] in carbonate buffer. After saturation with 5% casein/PBS buffer, the plates were washed and a dilution of AFFIMER® polypeptides or controls were incubated for 90 minutes. Plates were then washed and a biotinylated polyclonal antibody anti-cystatin A (R&D Systems) was added for 1 hour. Plates were washed and AFFIMER® polypeptides were detected using streptavidin-HRP. After a last washing step, TMB was added for the development of the experiment and plates were read at 450 nm.

Read-outs that look alike come from different tables or passages of the source.

T3 sequence (A2V9Z4 25-608): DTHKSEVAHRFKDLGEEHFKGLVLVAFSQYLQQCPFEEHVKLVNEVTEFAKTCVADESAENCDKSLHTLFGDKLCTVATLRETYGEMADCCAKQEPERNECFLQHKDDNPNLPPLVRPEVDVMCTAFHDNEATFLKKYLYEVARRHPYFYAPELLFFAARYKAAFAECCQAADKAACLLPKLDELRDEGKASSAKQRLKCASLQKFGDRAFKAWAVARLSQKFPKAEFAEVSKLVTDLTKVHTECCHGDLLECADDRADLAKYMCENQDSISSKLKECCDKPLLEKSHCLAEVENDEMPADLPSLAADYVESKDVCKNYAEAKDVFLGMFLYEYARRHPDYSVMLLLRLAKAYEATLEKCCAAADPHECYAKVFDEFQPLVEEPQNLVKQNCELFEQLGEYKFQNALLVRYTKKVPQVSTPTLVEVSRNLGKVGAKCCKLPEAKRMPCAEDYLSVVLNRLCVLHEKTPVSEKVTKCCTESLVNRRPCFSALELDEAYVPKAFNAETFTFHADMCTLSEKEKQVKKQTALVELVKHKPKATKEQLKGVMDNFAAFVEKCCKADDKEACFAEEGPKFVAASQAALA
T2 sequence (Q9NZQ7 19-239, change not shown): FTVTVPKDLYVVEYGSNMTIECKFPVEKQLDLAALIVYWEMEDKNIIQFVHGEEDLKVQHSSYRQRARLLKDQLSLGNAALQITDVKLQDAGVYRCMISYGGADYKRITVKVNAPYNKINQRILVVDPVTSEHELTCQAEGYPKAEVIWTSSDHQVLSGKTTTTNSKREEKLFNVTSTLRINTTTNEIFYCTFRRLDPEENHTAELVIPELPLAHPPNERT
T4 sequence (P07724 25-608 limits assumed): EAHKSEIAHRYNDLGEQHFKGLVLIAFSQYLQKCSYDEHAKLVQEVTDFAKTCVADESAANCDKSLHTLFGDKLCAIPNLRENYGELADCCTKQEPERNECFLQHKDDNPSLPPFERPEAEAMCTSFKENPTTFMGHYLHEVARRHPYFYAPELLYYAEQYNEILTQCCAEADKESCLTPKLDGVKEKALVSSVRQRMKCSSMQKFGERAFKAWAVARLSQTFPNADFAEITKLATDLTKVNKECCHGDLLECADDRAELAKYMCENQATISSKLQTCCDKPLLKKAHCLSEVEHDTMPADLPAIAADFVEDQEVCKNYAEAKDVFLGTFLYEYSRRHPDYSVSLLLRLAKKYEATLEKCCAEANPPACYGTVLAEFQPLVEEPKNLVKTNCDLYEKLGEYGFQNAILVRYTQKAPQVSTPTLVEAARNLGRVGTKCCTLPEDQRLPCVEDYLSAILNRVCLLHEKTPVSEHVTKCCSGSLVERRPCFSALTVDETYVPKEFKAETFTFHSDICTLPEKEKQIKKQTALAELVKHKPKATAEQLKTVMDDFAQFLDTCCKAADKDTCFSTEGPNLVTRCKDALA

B1: AVA04-261 XT10 (designed binder)
chain: MIPRGLSEAKPATPEIQEIVDKVKPQLEEKTNETYGKLEAVQYKTQVLAHAYGPRDWDSTNYYIKVRAGDNKYMHLKVFNGPPADHVLEEAADRVLTGYQVDKNKDDELTGFAEAAAKEAAAKEAAAKEAAAKEAAAKEAAAKMIPRGLSEAKPATPEIQEIVDKVKPQLEEKTNETYGKLEAVQYKTQVLANFFQRRWPGSTNYYIKVRAGDNKYMHLKVFNGPWKFRNTDRGADRVLTGYQVDKNKDDELTGFHHHHHH
In the assay with human serum albumin [1], B1 yielded a Kd of 9.7 nM, a koff of 0.00291 s⁻¹ and a kon of 299000 M⁻¹ s⁻¹. Also, in assay [2], the dissociation rate constant (koff) was 0.00826 s⁻¹ and the kon amounted to 875000 M⁻¹ s⁻¹. The Kd in assay [3] was 9.44 nM.

B2: AVA04-269 XT12 (designed binder)
chain: MIPRGLSEAKPATPEIQEIVDKVKPQLEEKTNETYGKLEAVQYKTQVLAKEYGPEEWWSTNYYIKVRAGDNKYMHLKVFNGPGDYEQVLIHADRVLTGYQVDKNKDDELTGFAEAAAKEAAAKEAAAKEAAAKEAAAKEAAAKMIPRGLSEAKPATPEIQEIVDKVKPQLEEKTNETYGKLEAVQYKTQVLANFFQRRWPGSTNYYIKVRAGDNKYMHLKVFNGPWKFRNTDRGADRVLTGYQVDKNKDDELTGFHHHHHH
In the case of B2, the figures for the Kd (with human serum albumin [1]; in assay [3]) were 12.9 nM and 3.8 nM, respectively. In addition, the results for the koff (in the assay with human serum albumin [1]; in assay [2]) were 0.00228 s⁻¹ and 0.00431 s⁻¹, respectively. Besides, the kon with human serum albumin [1] was 177000 M⁻¹ s⁻¹; in [2] it was 1.14e+06 M⁻¹ s⁻¹.

B3: HSA-22 (designed binder)
chain: MIPRGLSEAKPATPEIQEIVDKVKPQLEEKTNETYGKLEAVQYKTQVLANWYQQRWPGSTNYYIKVRAGDNKYMHLKVFNGPWHNYGESSGADRVLTGYQVDKNKDDELTGFHHHHHH
As to B3, the Kd worked out at 146 nM in the assay with cynomolgus serum albumin [4]; 44.7 nM with human serum albumin [5]; 334 nM in the assay with mouse serum albumin; 348 nM with cynomolgus serum albumin [6]; 152 nM in the assay with human serum albumin [7].

B4: HSA-41 F52A (designed binder)
chain: MIPRGLSEAKPATPEIQEIVDKVKPQLEEKTNETYGKLEAVQYKTQVLANFAQRRWPGSTNYYIKVRAGDNKYMHLKVFNGPWKFRNTDRGADRVLTGYQVDKNKDDELTGFHHHHHH
As to B4, the binding result with human serum albumin [8] was “no binding (tested: 50 nM)”. Besides, in the assay with human serum albumin [9], the “binding response” value was 2.2.

B5: HSA-41 F51A (designed binder)
chain: MIPRGLSEAKPATPEIQEIVDKVKPQLEEKTNETYGKLEAVQYKTQVLANAFQRRWPGSTNYYIKVRAGDNKYMHLKVFNGPWKFRNTDRGADRVLTGYQVDKNKDDELTGFHHHHHH
As to B5, in the assay with human serum albumin [8], the binding result is “no binding (tested: 50 nM)”. In addition, the “binding response” value with human serum albumin [9] is 2.8.

B6: HSA-41 W83A (designed binder)
chain: MIPRGLSEAKPATPEIQEIVDKVKPQLEEKTNETYGKLEAVQYKTQVLANFFQRRWPGSTNYYIKVRAGDNKYMHLKVFNGPAKFRNTDRGADRVLTGYQVDKNKDDELTGFHHHHHH
For B6, the binding result in the assay with human serum albumin [8] was “no binding (tested: 50 nM)”. Further, the “binding response” value with human serum albumin [9] was 2.9.

B7: HSA-41 W56A (designed binder)
chain: MIPRGLSEAKPATPEIQEIVDKVKPQLEEKTNETYGKLEAVQYKTQVLANFFQRRAPGSTNYYIKVRAGDNKYMHLKVFNGPWKFRNTDRGADRVLTGYQVDKNKDDELTGFHHHHHH
With B7, the binding result with human serum albumin [8] is reported as “no binding (tested: 50 nM)”. Moreover, in the assay with human serum albumin [9], the “binding response” value stood at 2.6.

B8: HSA-41 R55A (designed binder)
chain: MIPRGLSEAKPATPEIQEIVDKVKPQLEEKTNETYGKLEAVQYKTQVLANFFQRAWPGSTNYYIKVRAGDNKYMHLKVFNGPWKFRNTDRGADRVLTGYQVDKNKDDELTGFHHHHHH
As for B8, the binding result in the assay with human serum albumin [8] is recorded as “no binding (tested: 50 nM)”. In addition, in the assay with human serum albumin [9], the “binding response” value came out at 2.9.

B9: AVA04-251 XT16 (designed binder)
chain: MIPRGLSEAKPATPEIQEIVDKVKPQLEEKTNETYGKLEAVQYKTQVLANFFQRRWPGSTNYYIKVRAGDNKYMHLKVFNGPWKFRNTDRGADRVLTGYQVDKNKDDELTGFAEAAAKEAAAKEAAAKEAAAKEAAAKEAAAKMIPRGLSEAKPATPEIQEIVDKVKPQLEEKTNETYGKLEAVQYKTQVLAREGRQDWVLSTNYYIKVRAGDNKYMHLKVFNGPWVPFPHQQLADRVLTGYQVDKNKDDELTGFAEAAAKEAAAKEAAAKEAAAKEAAAKEAAAKMIPRGLSEAKPATPEIQEIVDKVKPQLEEKTNETYGKLEAVQYKTQVLAREGRQDWVLSTNYYIKVRAGDNKYMHLKVFNGPWVPFPHQQLADRVLTGYQVDKNKDDELTGFHHHHHH
In the case of B9, in the assay with human serum albumin [10], the EC50 worked out at 0.059 nM. Besides, in the assay with human serum albumin [11], the Kd stood at 3.95 nM, the koff came out at 0.00324 s⁻¹ and the kon amounted to 821000 M⁻¹ s⁻¹. In [12], this molecule registered an EC50 of 0.11 nM.

B10: AVA04-261 XT9 (designed binder)
chain: MIPRGLSEAKPATPEIQEIVDKVKPQLEEKTNETYGKLEAVQYKTQVLAHAYGPRDWDSTNYYIKVRAGDNKYMHLKVFNGPPADHVLEEAADRVLTGYQVDKNKDDELTGFGGGGSGGGGSGGGGSGGGGSGGGGSGGGGSMIPRGLSEAKPATPEIQEIVDKVKPQLEEKTNETYGKLEAVQYKTQVLANFFQRRWPGSTNYYIKVRAGDNKYMHLKVFNGPWKFRNTDRGADRVLTGYQVDKNKDDELTGFHHHHHH
On to B10, for which, in the assay with human serum albumin [1], the Kd stood at 13.3 nM, the koff is 0.00357 s⁻¹ and the on-rate constant (kon) turned out to be 269000 M⁻¹ s⁻¹. Moreover, in [2], the koff was found to be 0.00707 s⁻¹ and the kon was determined as 395000 M⁻¹ s⁻¹. In addition, the Kd in assay [3] turned out to be 17.9 nM.

B11: HSA-37 (designed binder)
chain: MIPRGLSEAKPATPEIQEIVDKVKPQLEEKTNETYGKLEAVQYKTQVLAGFWASKWPGSTNYYIKVRAGDNKYMHLKVFNGPFTAVSKKDAADRVLTGYQVDKNKDDELTGFHHHHHH
In the case of B11, the Kd in the assay with cynomolgus serum albumin [4] is 231 nM; with human serum albumin [5] it was 136 nM; in the assay with mouse serum albumin it was 834 nM; with cynomolgus serum albumin [6], 221 nM; with human serum albumin [7], 113 nM.
